Target: the molecule itself
Experiment: SEC; MBP-NR2E3 LBD in solution, compared with Bio-rad Protein Standard

B1: MBP-NR2E3 LBD-His6 fusion protein (MBP–NAAAEF linker–NR2E3(217-410)-His6, C275S) (domain or fragment, human, UniProt Q9Y5X4 217-410, looked up)
chain: LDSIHETSARLLFMAVKWAKNLPVFSSLPFRDQVILLEEAWSELFLLGAIQWSLPLDSSPLLAPPEASAAGGAQGRLTLASMETRVLQETISRFRALAVDPTEFACMKALVLFKPETRGLKDPEHVEALQDQSQVMLSQHSKAHHPSQPVRFGKLLLLLPSLRFITAERIELLFFRKTIGNTPMEKLLCDMFKN
notes: Both tags are non-cleavable; Expressed from pETDuet1; also called MBP-NR2E3 fusion protein; apo NR2E3 LBD; source: E. coli BL21 (DE3), purified (Ni-chelating Hi-Trap, Superdex 200 gel filtration); not shown: MBP (joined by the linker NAAAEF), N-terminal, kept; His6, C-terminal, kept
With B1 the “stoichiometry N” value was 2.

From article PMC3771917, “The Crystal Structure of the Orphan Nuclear Receptor NR2E3/PNR Ligand Binding Domain Reveals a Dimeric Auto-Repressed Conformation” (PLoS ONE, 2013)
